The values below come from patent US20240352088A1 (AICHI PREFECTURE, published 2024).

This test addresses T1, IL-6 (interleukin-6) (human, UniProt P05231 30-212).
T1 construct: also called recombinant IL-6; human IL-6
In words: plasma IL-6 by ELISA 1, 2 and 4 h after i.v. human IL-6 (2 µg) in NSG mice given the CAR-T cells. How it is done: An NALM6 cell line stably transduced with EGFP-P2A-Luc2 (GL) (referred to as a “NALM6-GL cell line”) was administered at 2.5×10⁶ cells/mouse into the tail vein of the NSG mice (Charles River Laboratories Japan, JAX Mice Stock No: 005557). After 10 days, control cells transduced with only a CAR gene or GP130-IL6R-ca7R-transduced CAR-T cells were administered into the tail vein at 3×10⁶ cells/mouse. After another 7 days, 2 μg of human IL-6 was intravenously administered, and blood was collected at 1 hour, 2 hours, and 4 hours after the injection to measure the concentration of IL-6 in plasma by ELISA. Note that the control cells or GP130-IL6R-ca7R-transduced CAR-T cells used for the administration into the NSG mice were stimulated again with the NALM6-GL cell line on day 7 of culture and expanded, and cultured for 11 days.
A general note: ELISA stands for enzyme-linked immunosorbent assay.

B1: chimeric cytokine receptor GP130-IL6R-ca7R (receptor)
chain: ELLDPCGYISPESPVVQLHSNFTAVCVLKEKCMDYFHVNANYIVWKTNHFTIPKEQYTIINRTASSVTFTDIASLNIQLTCNILTFGQLEQNVYGITIISGLPPEKPKNLSCIVNEGKKMRCEWDGGRETHLETNFTLKSEWATHKFADCKAKRDTPTSCTVDYSTVYFVNIEVWVEAENALGKVTSDHINFDPVYKVKPNPPHNLSVINSEELSSILKLTWTNPSIKSVIILKYNIQYRTKDASTWSQIPPEDTASTRSSFTVQDLKPFTEYVFRIRCMKEDGKGYWSDWSEEASGITYEDRPGSAGSAAGSGEFVDVPPEEPQLSCFRKSPLSNVVCEWGPRSTPSLTTKAVLLVRKFQNSPAEDFQEPCQYSQESQKFSCQLAVPEGDSSFYIVSMCVASSVGSKFSKTQTFQGCGILQPDPPANITVTAVARNPRWLSVTWQDPHSWNSSFYRLRFELRYRAERSKTFTTWMVKDLQHHCVIHDAWSGLRHVVQLRAQEEFGQGEWSEWSPEAMGTPWTESRSPPAENEVSTPMQALTTNKDDDNILFRDSANATSLPVQDSSSVPLPAAANNSSGEMDPILLPPCLTISILSFFSVALLVILACVLWKKRIKPIVWPSLPDHKKTLEHLCKKPRKNLNVSFNPESFLDCQIHRVDDIQARDEVEGFLQDTFPQQLEESEKQRLGGDVQSPNCPSEDVVITPESFGRDSSLTCLAGNVSACDAPILSSSRSLDCRESGKNGPHVYQDLLLSLGTTNSTLPPPFSLQSGILTLNPVAQGQPILTSLGSNQEEAYVTMSSFYQNQ
notes: Expressed on the surface of human CAR-T cells; also called GP130-IL6R-ca7R(WT)
Consider B1, for which the binding result is reported as “binds”.
